In publication PMC12507909:
pKd: −log10 of the molar value.

Target: basigin (BSG), recombinant extracellular domain Met1-His205 (human)
Assay: ELISA; Maxisorp plates coated with 5 μg/mL of each receptor candidate; serial dilutions of PvRBP1a_(158-650)LTID and LTID (48,000 pM to 187.5 pM and 4,000 pM to 1.28 pM) in blocking solution, 16 hours at 4°C; detected with a TurboID-specific antibody; one-site binding saturation model; triplicates

Substance: PvRBP1a_(158-650)LTID fusion protein (from UniProt Q5DSE1 158-650) (domain or fragment)
- pKd: 8.67
